Test results: patent US20160017353A1

Target: EGF receptor (EGFR) (human) (UniProt P00533)
Experiment: cell-based or functional assay

HK-2 cell proliferation (cell count), 150 ng/ml total rice medium protein (5 ng H-EGF): 2.9 fold
Substance: recombinant HSA-EGF fusion protein (human serum albumin fused to the N-terminal end of human EGF), secreted from transgenic rice cell line H-EGF 43 (from UniProt P02768 25-609) (ligand)
